Blank lines part the entries; values can stand above or below the binder they belong to. Positions of bridges follow the written chain, without caps; N, C: chain ends. Non-standard residues stand in square brackets, D forms with d. Primed or numbered codes have the meaning given here. No end group written: not given here. T(Sa)″ = not defined here
Experiments:
Experiment in all cases: on-bead capture from E. coli membrane protein extract; tryptic digest, MALDI peptide mass fingerprint
[1] = target: T1, NAD-dependent 7-alpha-hydroxysteriod dehydrogenase (Escherichia coli, UniProt P0AET8 1-255)
T1 sequence (looked up): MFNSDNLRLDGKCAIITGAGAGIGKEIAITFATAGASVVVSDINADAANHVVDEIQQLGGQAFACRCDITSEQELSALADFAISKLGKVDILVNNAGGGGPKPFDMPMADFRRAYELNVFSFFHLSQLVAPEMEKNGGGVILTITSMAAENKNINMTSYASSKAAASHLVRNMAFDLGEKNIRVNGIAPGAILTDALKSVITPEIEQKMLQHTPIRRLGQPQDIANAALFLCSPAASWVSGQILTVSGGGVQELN

[2] = target: T2, citrate synthetase (Escherichia coli, UniProt P0ABH7 1-427)
T2 sequence (looked up): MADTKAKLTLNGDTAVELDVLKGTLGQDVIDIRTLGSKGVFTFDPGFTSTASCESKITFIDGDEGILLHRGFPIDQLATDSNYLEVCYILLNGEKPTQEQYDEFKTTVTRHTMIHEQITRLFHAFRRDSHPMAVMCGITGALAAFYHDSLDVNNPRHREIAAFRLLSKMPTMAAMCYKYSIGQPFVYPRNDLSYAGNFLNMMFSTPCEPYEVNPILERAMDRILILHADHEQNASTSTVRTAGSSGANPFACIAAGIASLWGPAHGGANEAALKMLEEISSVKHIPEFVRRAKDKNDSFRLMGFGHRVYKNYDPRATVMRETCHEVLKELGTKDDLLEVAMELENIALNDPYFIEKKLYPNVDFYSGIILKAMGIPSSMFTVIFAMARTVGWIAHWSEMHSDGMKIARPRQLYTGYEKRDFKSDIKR

[3] = target: T3, glutamine tRNA synthetase (Escherichia coli, UniProt P00962 2-554)
T3 sequence (looked up): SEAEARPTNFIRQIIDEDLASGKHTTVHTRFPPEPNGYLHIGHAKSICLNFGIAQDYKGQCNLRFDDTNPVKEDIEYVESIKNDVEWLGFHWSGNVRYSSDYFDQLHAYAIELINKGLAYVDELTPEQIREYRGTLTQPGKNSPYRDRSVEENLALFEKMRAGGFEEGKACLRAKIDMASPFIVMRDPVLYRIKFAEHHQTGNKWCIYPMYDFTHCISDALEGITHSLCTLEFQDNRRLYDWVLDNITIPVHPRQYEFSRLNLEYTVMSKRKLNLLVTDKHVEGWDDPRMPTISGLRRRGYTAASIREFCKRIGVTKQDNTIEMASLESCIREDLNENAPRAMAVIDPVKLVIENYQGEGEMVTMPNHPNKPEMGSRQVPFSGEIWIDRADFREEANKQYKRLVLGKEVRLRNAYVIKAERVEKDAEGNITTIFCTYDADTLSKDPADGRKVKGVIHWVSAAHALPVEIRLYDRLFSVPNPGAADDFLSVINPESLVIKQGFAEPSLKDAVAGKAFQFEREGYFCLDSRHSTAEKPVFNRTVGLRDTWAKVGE

[4] = target: UDP-glucose dehydrogenase (Escherichia coli, UniProt P76373 1-388)
[5] = target: T4, Biotin synthetase (Escherichia coli, UniProt P12996 1-346)
T4 sequence (looked up): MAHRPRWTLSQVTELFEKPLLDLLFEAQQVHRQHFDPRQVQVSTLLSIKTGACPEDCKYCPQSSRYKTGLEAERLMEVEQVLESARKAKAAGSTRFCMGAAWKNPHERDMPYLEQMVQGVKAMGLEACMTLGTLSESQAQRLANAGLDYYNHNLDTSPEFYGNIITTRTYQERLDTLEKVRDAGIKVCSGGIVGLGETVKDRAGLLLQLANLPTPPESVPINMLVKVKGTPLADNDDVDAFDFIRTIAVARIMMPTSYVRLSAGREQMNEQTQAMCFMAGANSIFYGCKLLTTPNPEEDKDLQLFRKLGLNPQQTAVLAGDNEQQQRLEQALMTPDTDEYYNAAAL

[6] = target: T5, Mannose-1-phosphate guanyl transferase (Escherichia coli, UniProt P24174 1-478)
T5 sequence (looked up): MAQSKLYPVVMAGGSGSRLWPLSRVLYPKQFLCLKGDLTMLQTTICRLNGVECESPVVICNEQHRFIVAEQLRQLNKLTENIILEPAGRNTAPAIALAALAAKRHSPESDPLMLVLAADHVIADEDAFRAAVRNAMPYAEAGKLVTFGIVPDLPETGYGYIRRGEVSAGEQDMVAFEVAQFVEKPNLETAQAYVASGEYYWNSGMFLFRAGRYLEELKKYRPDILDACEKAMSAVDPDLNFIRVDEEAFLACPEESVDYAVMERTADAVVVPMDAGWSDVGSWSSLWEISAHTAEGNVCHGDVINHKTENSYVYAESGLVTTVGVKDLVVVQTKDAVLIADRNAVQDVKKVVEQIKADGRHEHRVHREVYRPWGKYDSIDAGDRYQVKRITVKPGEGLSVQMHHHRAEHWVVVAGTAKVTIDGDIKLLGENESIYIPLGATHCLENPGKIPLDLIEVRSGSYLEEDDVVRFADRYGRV

[7] = target: isopropyl malate dehydrogenase (Escherichia coli, UniProt P30125 2-363)
Chain of isopropyl malate dehydrogenase (P30125 2-363 limits assumed): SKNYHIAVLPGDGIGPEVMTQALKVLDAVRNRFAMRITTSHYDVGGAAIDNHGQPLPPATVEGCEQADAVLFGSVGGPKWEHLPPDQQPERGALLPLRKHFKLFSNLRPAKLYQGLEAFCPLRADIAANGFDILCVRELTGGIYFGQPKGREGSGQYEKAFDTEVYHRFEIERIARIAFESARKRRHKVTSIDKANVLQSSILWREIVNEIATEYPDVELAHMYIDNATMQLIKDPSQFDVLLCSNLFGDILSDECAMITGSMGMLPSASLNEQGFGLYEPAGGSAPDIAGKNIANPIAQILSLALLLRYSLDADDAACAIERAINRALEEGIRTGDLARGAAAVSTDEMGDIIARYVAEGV

- binding result [1]: binds
- binding result [2]: binds
B1: T(Sa)-L-S-W-W (peptide)
peptide: [T(Sa)″]LSWW
modifications: lactam N-1; reading uncertain; also: printed as T(Sa)-L-S-W-W
notes: Library 2 ligand, resynthesised on PEGA4000 resin bead

- binding result [3]: binds
B2: T(Sa)-G-V-F-L (peptide)
peptide: [T(Sa)″]GVFL
modifications: lactam N-1; reading uncertain; also: printed as T(Sa)-G-V-F-L
notes: as for B1

- binding result [4]: binds
- binding result [5]: binds
B3: T(Sa)-Y-S-M-P (peptide)
peptide: [T(Sa)″]YSMP
modifications: lactam N-1; reading uncertain; also: printed as T(Sa)-Y-S-M-P
notes: as for B1

- binding result [6]: binds
- binding result [7]: binds
B4: T(Sa)-H-W-H-I (peptide)
peptide: [T(Sa)″]HWHI
modifications: lactam N-1; reading uncertain; also: printed as T(Sa)-H-W-H-I
notes: as for B1
